# Values quoted from earlier work, collected in publication PMC10653114.
# Assays:
# Asp43 = Asp43 (UniProt position 417, WTLTFDFPSGQ); conditions: 298 K; Conc. 0.10 (unit not given; K+/Cl–)
# Asp39 = Asp39 (UniProt position 413, PVDGWDLTFSF); conditions: 298 K; Conc. 0.10 (unit not given; K+/Cl–)
# Lys96 = Lys96 (UniProt position 114, SVNCAKKIVSD); assay: NMR (per the title of cited ref 36); conditions: 300 K; Conc. 0.10 (unit not given; Na+/Cl–)
# Glu7 = Glu7 (UniProt position 25, VFGRCELAAAM); assay: NMR (per the title of cited ref 36); conditions: 300 K; Conc. 0.10 (unit not given; Na+/Cl–)
# Asp66 = Asp66 (UniProt position 84, RWWCNDGRTPG); assay: NMR (per the title of cited ref 36); conditions: 300 K; Conc. 0.10 (unit not given; Na+/Cl–)
# Asp101 = Asp101 (UniProt position 119, KKIVSDGNGMN); assay: NMR (per the title of cited ref 36); conditions: 300 K; Conc. 0.10 (unit not given; Na+/Cl–)
# Asp52 = Asp52 (UniProt position 70, TDGSTDYGILQ); assay: NMR (per the title of cited ref 36); conditions: 300 K; Conc. 0.10 (unit not given; Na+/Cl–)
# Glu35 = Glu35 (UniProt position 53, CAAKFESNFNT); assay: NMR (per the title of cited ref 36); conditions: 300 K; Conc. 0.10 (unit not given; Na+/Cl–)
# Asp18 = Asp18 (UniProt position 36, KRHGLDNYRGY); assay: NMR (per the title of cited ref 36); conditions: 300 K; Conc. 0.10 (unit not given; Na+/Cl–)
# Lys97 = Lys97 (UniProt position 115, VNCAKKIVSDG); assay: NMR (per the title of cited ref 36); conditions: 300 K; Conc. 0.10 (unit not given; Na+/Cl–)
# Asp48 = Asp48 (UniProt position 66, TNRNTDGSTDY); assay: NMR (per the title of cited ref 36); conditions: 300 K; Conc. 0.10 (unit not given; Na+/Cl–)
# Asp119 = Asp119 (UniProt position 137, RCKGTDVQAWI); assay: NMR (per the title of cited ref 36); conditions: 300 K; Conc. 0.10 (unit not given; Na+/Cl–)
# Lys116 = Lys116 (UniProt position 134, WRNRCKGTDVQ); assay: NMR (per the title of cited ref 36); conditions: 300 K; Conc. 0.10 (unit not given; Na+/Cl–)
# Asp87 = Asp87 (UniProt position 105, ALLSSDITASV); assay: NMR (per the title of cited ref 36); conditions: 300 K; Conc. 0.10 (unit not given; Na+/Cl–)
# Lys33 = Lys33 (UniProt position 51, WVCAAKFESNF); assay: NMR (per the title of cited ref 36); conditions: 300 K; Conc. 0.10 (unit not given; Na+/Cl–)
# Lys13 = Lys13 (UniProt position 31, LAAAMKRHGLD); assay: NMR (per the title of cited ref 36); conditions: 300 K; Conc. 0.10 (unit not given; Na+/Cl–)
# Asp17 = Asp17 (UniProt position 17, PPEATDTLNLI); conditions: 295 K; Conc. 0.10 (unit not given; Na+/Cl–)
# Glu74 = Glu74 (UniProt position 74, RIITGEATQED); conditions: 295 K; Conc. 0.10 (unit not given; Na+/Cl–)
# Glu14 = Glu14 (UniProt position 14, SALPPEATDTL); conditions: 295 K; Conc. 0.10 (unit not given; Na+/Cl–)
# Asp33 = Asp33 (UniProt position 33, FPYSQDGVVFQ); conditions: 295 K; Conc. 0.10 (unit not given; Na+/Cl–)
# Asp93 = Asp93 (UniProt position 93, TFSLIDQTC--); conditions: 295 K; Conc. 0.10 (unit not given; Na+/Cl–)
# Glu54 = Glu54 (UniProt position 54, YGYYHEYTVIT); conditions: 295 K; Conc. 0.10 (unit not given; Na+/Cl–)
# Asp84 = Asp84 (UniProt position 84, DYYTGDHYATF); conditions: 295 K; Conc. 0.10 (unit not given; Na+/Cl–)
# Asp79 = Asp79 (UniProt position 79, EATQEDYYTGD); conditions: 295 K; Conc. 0.10 (unit not given; Na+/Cl–)
# Glu78 = Glu78 (UniProt position 78, GEATQEDYYTG); conditions: 295 K; Conc. 0.10 (unit not given; Na+/Cl–)
# Glu41 = Glu41 (UniProt position 41, VFQNRESVLPT); conditions: 295 K; Conc. 0.10 (unit not given; Na+/Cl–)
# Asp25 = Asp25 (UniProt position 25, NLIASDGPFPY); conditions: 295 K; Conc. 0.10 (unit not given; Na+/Cl–)
# Glu135 = Glu135 (UniProt position 217, AQAKKEKLNIW); conditions: 298 K; Conc. 0.10 (unit not given; K+/Cl–)
# Glu57 = Glu57 (UniProt position 139, EKYGPEASAFT); conditions: 298 K; Conc. 0.10 (unit not given; K+/Cl–)
# Glu75 = Glu75 (UniProt position 157, KKIEVEFDKGQ); conditions: 298 K; Conc. 0.10 (unit not given; K+/Cl–)
# Asp19 = Asp19 (UniProt position 101, LIKAIDGDTVK); conditions: 298 K; Conc. 0.10 (unit not given; K+/Cl–)
# Asp83 = Asp83 (UniProt position 165, KGQRTDKYGRG); conditions: 298 K; Conc. 0.10 (unit not given; K+/Cl–)
# Glu101 = Glu101 (UniProt position 183, GKMVNEALVRQ); conditions: 298 K; Conc. 0.10 (unit not given; K+/Cl–)
# Glu10 = Glu10 (UniProt position 92, KKLHKEPATLI); conditions: 298 K; Conc. 0.10 (unit not given; K+/Cl–)
# Asp95 = Asp95 (UniProt position 177, AYIYADGKMVN); conditions: 298 K; Conc. 0.10 (unit not given; K+/Cl–)
# Asp77 = Asp77 (UniProt position 159, IEVEFDKGQRT); conditions: 298 K; Conc. 0.10 (unit not given; K+/Cl–)
# Glu73 = Glu73 (UniProt position 155, NAKKIEVEFDK); conditions: 298 K; Conc. 0.10 (unit not given; K+/Cl–)
# Glu142 = Glu142 (UniProt position 224, LNIWSEDNADS); conditions: 298 K; Conc. 0.10 (unit not given; K+/Cl–)
# Glu43 = Glu43 (UniProt position 125, LVDTPETKHPK); conditions: 298 K; Conc. 0.10 (unit not given; K+/Cl–)
# Glu129 = Glu129 (UniProt position 211, LLRKAEAQAKK); conditions: 298 K; Conc. 0.10 (unit not given; K+/Cl–)
# Glu67 = Glu67 (UniProt position 149, TKKMVENAKKI); conditions: 298 K; Conc. 0.10 (unit not given; K+/Cl–)
# Asp40 = Asp40 (UniProt position 122, RLLLVDTPETK); conditions: 298 K; Conc. 0.10 (unit not given; K+/Cl–)
# Asp21 = Asp21 (UniProt position 103, KAIDGDTVKLM); conditions: 298 K; Conc. 0.10 (unit not given; K+/Cl–)
# Asp146 = Asp146 (UniProt position 228, SEDNADSGQ--); conditions: 298 K; Conc. 0.10 (unit not given; K+/Cl–)
# Glu52 = Glu52 (UniProt position 134, PKKFNEKYGPE); conditions: 298 K; Conc. 0.10 (unit not given; K+/Cl–)
# Asp143 = Asp143 (UniProt position 225, NIWSEDNADSG); conditions: 298 K; Conc. 0.10 (unit not given; K+/Cl–)
# Glu122 = Glu122 (UniProt position 204, GNNTHEQLLRK); conditions: 298 K; Conc. 0.10 (unit not given; K+/Cl–)
substance,measurement,setting,value
"Highly charge-depleted protein (PDB 6QFS), S43D/T66H variant (Cellulomonas fimi (parent domain; not stated in the article); S43D;T66H (on the 6QFS charge-depleted background; background substitutions not stated))",pKa,Asp43,4.32 ± 0.02
"Highly charge-depleted protein (PDB 6QFS), T39D/T66H variant (Cellulomonas fimi (parent domain; not stated in the article); T39D;T66H (on the 6QFS charge-depleted background; background substitutions not stated))",pKa,Asp39,4.07 ± 0.02
Hen egg-white lysozyme (HEWL) (Gallus gallus),pKa,Lys96,10.80 ± 0.10
same,pKa,Glu7,2.85 ± 0.25
same,pKa,Asp66,0.90 ± 0.5
same,pKa,Asp101,4.09 ± 0.07
same,pKa,Asp52,3.68 ± 0.08
same,pKa,Glu35,6.20 ± 0.10
same,pKa,Asp18,2.66 ± 0.08
same,pKa,Lys97,10.30 ± 0.10
same,pKa,Asp48,1.60 ± 0.4
same,pKa,Asp119,3.2 ± 0.09
same,pKa,Lys116,10.40 ± 0.10
same,pKa,Asp87,2.07 ± 0.15
same,pKa,Lys33,10.60 ± 0.10
same,pKa,Lys13,10.50 ± 0.10
"Highly charge-depleted protein (PDB 6QFS), T39D variant (Cellulomonas fimi (parent domain; not stated in the article); T39D (on the 6QFS charge-depleted background; background substitutions not stated))",pKa,Asp39,5
Ribonuclease Sa (Streptomyces aureofaciens),pKa,Asp17,3.72 ± 0.07
same,pKa,Glu74,3.47 ± 0.07
same,pKa,Glu14,5.02 ± 0.07
same,pKa,Asp33,2.39 ± 0.07
same,pKa,Asp93,3.09 ± 0.07
same,pKa,Glu54,3.42 ± 0.07
same,pKa,Asp84,3.01 ± 0.07
same,pKa,Asp79,7.37 ± 0.07
same,pKa,Glu78,3.13 ± 0.07
same,pKa,Glu41,4.14 ± 0.07
same,pKa,Asp25,4.87 ± 0.07
"Staphylococcal nuclease, Delta+PHS variant (Staphylococcus aureus; G50F;V51N;P117G;H124L;S128A;del44-49)",pKa,Glu135,3.76 ± 0.08
same,pKa,Glu57,3.49 ± 0.09
same,pKa,Glu75,3.26 ± 0.05
same,pKa,Asp19,2.21 ± 0.07
same,pKa,Asp83,<2.2
same,pKa,Glu101,3.81 ± 0.1
same,pKa,Glu10,2.82 ± 0.09
same,pKa,Asp95,2.16 ± 0.07
same,pKa,Asp77,<2.2
same,pKa,Glu73,3.31 ± 0.01
same,pKa,Glu142,4.49 ± 0.04
same,pKa,Glu43,4.32 ± 0.04
same,pKa,Glu129,3.75 ± 0.09
same,pKa,Glu67,3.76 ± 0.07
same,pKa,Asp40,3.87 ± 0.09
same,pKa,Asp21,6.53 ± 0.02
same,pKa,Asp146,3.86 ± 0.05
same,pKa,Glu52,3.93 ± 0.08
same,pKa,Asp143,3.8 ± 0.1
same,pKa,Glu122,3.89 ± 0.09
